Experimental data reported in doi:10.1101/596536.

How the values were obtained:
[1] = biological target: TcdB2-TccC3 from Photorhabdus luminescens (Pl-TcdB2-TccC3) (P. luminescens) (UniProt Q8GF99); assay: BLI
[2] = biological target: TcdA1 from Photorhabdus luminescens (Pl-TcdA1) (P. luminescens) (UniProt Q9RN43); assay: cryo-EM structure
[3] = biological target: TcdA4 from Morganella morganii (Mm-TcdA4) (M. morganii); assay: cryo-EM structure
[4] = biological target: TcdA4 from Photorhabdus luminescens (Pl-TcdA4) (P. luminescens) (UniProt Q8GF92); assay: cryo-EM structure
[5] = biological target: XptA1 from Xenorhabdus nematophila (Xn-XptA1) (X. nematophila); assay: cryo-EM structure

Substance	Kd [1]	stoichiometry N [2]	stoichiometry N [3]	stoichiometry N [4]	stoichiometry N [5]
TcdA1 from Photorhabdus luminescens (Pl-TcdA1), Q9RN43 1-2516	0.63 nM	5			
TcdA4 from Morganella morganii (Mm-TcdA4) (natural protein)	11.3 nM		5		
TcdA4 from Photorhabdus luminescens (Pl-TcdA4), Q8GF92 1-2381				5	
XptA1 from Xenorhabdus nematophila (Xn-XptA1) (natural protein)	1.99 nM				5
